Data: the supplement of paper PMC10065799, “High-throughput profiling of sequence recognition by tyrosine kinases and SH2 domains using bacterial peptide display” (eLife, 2023)

Legend:
c-Src SH2 = assay: SH2 binding enrichment of the phosphorylated peptide, bacterial display (enrichment ratio); higher = better substrate or ligand; peptides without Tyr show the background
Grb2 SH2 = Grb2 SH2 (UniProt P62993); assay: as above
SHP2-C SH2 = assay: as above
Fer (mouse) = assay: phosphorylation enrichment, bacterial display (enrichment ratio); higher = better substrate or ligand; peptides without Tyr show the background
AncSZ = assay: as above
FGFR1 = FGFR1 (UniProt P11362); assay: as above
EPHB1 = EPHB1 (UniProt P54762); assay: as above
Chain of EPHB1 (P54762 whole entry, looked up): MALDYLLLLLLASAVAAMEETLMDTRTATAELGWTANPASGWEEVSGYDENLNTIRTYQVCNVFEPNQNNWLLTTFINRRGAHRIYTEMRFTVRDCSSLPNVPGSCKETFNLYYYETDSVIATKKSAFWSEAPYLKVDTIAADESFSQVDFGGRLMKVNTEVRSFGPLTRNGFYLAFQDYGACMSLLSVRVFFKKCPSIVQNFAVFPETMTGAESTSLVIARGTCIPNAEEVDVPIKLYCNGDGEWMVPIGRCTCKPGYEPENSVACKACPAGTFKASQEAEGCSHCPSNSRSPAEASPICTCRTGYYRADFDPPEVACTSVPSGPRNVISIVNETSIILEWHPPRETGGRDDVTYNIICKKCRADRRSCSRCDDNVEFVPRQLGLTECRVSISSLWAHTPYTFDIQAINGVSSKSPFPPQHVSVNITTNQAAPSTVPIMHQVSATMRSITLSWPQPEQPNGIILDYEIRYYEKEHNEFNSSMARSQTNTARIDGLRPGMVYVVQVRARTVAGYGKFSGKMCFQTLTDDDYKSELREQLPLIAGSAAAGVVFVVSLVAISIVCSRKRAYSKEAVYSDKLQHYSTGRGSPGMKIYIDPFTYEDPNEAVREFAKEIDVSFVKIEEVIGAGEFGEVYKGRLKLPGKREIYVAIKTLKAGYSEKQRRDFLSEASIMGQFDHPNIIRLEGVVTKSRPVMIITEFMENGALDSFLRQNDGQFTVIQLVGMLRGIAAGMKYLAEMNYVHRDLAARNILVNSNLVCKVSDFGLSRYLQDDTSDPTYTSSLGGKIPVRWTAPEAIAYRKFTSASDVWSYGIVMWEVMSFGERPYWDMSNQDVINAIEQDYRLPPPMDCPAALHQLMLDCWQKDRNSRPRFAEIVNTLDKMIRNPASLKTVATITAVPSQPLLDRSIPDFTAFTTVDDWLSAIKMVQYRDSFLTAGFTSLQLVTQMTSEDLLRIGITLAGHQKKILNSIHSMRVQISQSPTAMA

Hck = Hck (UniProt P08631); assay: as above
Jak2 = Jak2 (UniProt O60674); assay: as above
Chain of Jak2 (O60674 whole entry, looked up): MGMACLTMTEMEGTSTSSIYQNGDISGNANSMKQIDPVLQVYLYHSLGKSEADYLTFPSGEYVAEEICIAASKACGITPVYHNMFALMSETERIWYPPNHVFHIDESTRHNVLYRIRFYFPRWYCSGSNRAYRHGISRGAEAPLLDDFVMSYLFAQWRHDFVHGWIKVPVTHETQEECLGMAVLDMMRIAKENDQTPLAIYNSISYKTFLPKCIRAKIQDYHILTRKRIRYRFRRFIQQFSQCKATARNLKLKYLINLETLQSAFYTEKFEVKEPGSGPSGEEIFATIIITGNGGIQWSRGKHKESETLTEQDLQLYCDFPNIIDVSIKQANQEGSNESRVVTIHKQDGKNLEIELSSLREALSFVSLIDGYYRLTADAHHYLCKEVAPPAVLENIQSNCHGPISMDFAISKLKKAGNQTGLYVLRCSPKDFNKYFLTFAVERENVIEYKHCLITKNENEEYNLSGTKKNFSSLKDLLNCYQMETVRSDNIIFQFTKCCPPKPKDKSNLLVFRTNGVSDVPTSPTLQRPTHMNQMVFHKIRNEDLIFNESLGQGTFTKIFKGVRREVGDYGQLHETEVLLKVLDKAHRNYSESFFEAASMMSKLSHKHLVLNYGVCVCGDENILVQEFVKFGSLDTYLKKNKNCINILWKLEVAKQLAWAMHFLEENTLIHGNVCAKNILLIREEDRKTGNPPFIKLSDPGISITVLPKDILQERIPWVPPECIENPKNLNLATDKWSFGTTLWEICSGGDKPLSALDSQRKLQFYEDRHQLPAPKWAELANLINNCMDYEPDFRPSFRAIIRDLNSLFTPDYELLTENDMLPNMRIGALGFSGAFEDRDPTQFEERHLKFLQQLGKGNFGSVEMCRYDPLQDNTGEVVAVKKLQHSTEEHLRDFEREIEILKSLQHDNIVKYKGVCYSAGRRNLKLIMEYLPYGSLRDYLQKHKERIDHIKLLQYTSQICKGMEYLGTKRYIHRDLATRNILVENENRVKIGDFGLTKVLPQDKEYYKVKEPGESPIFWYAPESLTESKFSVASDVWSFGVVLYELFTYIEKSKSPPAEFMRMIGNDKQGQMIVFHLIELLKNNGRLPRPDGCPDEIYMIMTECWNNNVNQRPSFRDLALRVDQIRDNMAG

MERTK = MERTK (UniProt Q12866); assay: as above
Chain of MERTK (Q12866 whole entry, looked up): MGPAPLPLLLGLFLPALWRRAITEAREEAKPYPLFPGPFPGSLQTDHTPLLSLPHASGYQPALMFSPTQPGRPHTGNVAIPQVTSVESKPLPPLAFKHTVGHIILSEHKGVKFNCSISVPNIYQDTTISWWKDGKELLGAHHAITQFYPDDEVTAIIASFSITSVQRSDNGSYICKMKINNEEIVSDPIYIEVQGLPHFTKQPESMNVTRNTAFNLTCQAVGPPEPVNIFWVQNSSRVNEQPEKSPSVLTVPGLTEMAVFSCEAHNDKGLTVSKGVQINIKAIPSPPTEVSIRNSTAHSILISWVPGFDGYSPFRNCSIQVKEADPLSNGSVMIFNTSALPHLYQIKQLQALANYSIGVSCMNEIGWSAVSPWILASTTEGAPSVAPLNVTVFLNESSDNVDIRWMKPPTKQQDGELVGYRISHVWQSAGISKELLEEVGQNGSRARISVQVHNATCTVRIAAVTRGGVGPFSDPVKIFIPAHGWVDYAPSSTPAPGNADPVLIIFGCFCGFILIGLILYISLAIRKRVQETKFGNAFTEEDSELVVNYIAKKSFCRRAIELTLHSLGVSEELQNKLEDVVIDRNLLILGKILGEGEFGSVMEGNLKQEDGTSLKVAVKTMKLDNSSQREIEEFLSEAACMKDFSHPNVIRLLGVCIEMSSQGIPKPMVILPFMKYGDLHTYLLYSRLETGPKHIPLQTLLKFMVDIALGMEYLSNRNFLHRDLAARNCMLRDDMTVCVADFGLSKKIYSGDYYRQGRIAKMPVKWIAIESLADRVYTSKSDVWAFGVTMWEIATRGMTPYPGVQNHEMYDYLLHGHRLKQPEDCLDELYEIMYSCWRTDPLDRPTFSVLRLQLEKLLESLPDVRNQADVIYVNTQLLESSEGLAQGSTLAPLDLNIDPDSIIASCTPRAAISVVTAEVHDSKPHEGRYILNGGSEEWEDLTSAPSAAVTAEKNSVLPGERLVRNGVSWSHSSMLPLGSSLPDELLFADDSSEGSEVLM

FGFR3 = FGFR3 (UniProt P22607); assay: as above
Chain of FGFR3 (P22607 whole entry, looked up): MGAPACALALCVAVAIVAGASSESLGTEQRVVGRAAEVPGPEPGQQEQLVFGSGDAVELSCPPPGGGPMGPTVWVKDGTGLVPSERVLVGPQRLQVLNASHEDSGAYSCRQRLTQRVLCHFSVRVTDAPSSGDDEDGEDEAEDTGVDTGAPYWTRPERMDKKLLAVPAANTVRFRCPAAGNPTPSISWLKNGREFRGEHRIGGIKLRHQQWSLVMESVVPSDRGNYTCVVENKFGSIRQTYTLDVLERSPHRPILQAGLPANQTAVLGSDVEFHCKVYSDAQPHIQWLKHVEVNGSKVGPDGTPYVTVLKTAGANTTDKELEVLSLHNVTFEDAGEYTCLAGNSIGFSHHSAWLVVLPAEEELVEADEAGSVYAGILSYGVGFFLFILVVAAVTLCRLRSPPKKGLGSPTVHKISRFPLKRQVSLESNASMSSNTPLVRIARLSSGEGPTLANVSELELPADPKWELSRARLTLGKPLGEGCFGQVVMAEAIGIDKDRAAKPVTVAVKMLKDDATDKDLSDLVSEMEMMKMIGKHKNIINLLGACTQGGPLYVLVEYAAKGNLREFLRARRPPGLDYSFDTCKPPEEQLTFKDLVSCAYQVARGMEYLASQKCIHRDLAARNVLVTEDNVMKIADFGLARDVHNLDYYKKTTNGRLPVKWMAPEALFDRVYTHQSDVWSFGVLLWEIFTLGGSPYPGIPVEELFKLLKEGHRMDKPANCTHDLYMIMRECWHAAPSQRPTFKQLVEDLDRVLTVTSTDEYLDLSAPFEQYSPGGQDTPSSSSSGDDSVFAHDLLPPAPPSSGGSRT

Fyn = Fyn (UniProt P06241); assay: as above
Chain of Fyn (P06241 whole entry, looked up): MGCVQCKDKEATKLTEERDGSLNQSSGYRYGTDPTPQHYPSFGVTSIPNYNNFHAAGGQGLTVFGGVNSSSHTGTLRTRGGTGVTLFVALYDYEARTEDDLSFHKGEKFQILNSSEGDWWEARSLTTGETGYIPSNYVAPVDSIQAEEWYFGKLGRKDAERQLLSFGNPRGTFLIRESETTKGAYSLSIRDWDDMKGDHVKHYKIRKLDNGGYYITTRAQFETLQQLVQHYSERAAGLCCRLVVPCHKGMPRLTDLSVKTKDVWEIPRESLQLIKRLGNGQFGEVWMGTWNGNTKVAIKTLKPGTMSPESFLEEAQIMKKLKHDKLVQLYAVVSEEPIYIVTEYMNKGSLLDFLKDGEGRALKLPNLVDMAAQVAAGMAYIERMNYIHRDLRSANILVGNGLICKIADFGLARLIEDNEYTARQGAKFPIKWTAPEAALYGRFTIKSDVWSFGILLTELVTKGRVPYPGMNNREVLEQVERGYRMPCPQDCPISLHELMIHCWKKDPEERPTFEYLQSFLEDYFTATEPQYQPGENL

EPHB2 = EPHB2 (UniProt P29323); assay: as above
Fes = Fes (UniProt P07332); assay: as above
c-Src = assay: as above
c-Abl (mouse) = assay: as above
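For SH2 binding enrichment of the phosphorylated peptide, bacterial display in this document: peptide library displayed on the E. coli surface as eCPX fusions, selected cells deep-sequenced, score is each peptide's frequency after selection divided by its frequency in the input.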
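For phosphorylation enrichment, bacterial display in this document: 11-residue human phosphosite peptides and single-mutation variants displayed on the E. coli surface, counted by deep sequencing, each peptide's frequency after selection divided by its frequency in the unselected input library; frequency after pTyr selection over input frequency; kinase dosed for 20-30% of maximal phosphorylation in three min.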

Chain of Grb2 SH2 (P62993 whole entry, looked up): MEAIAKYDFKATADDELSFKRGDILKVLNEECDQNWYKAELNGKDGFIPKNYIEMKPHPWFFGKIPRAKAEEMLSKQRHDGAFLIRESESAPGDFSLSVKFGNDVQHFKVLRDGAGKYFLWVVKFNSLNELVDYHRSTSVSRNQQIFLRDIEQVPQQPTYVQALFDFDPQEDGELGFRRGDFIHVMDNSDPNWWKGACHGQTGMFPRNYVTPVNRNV

Row | Sequence | SH2 binding enrichment (c-Src SH2) | SH2 binding enrichment (Grb2 SH2) | SH2 binding enrichment (SHP2-C SH2) | phosphorylation enrichment (Fer (mouse)) | phosphorylation enrichment (AncSZ) | phosphorylation enrichment (FGFR1) | phosphorylation enrichment (EPHB1) | phosphorylation enrichment (Hck) | phosphorylation enrichment (Jak2) | phosphorylation enrichment (MERTK) | phosphorylation enrichment (FGFR3) | phosphorylation enrichment (Fyn) | phosphorylation enrichment (EPHB2) | phosphorylation enrichment (Fes) | phosphorylation enrichment (c-Src) | phosphorylation enrichment (c-Abl (mouse))
1 | LGRKLYSIAAP [ABHD12_Y345] | 0.593 | 0.788 | 0.583 | 0.952 | 1.3 | 0.543 | 0.664 | 0.73 | 2.38 | 1.04 | 1.12 | 0.737 | 1.04 | 1.13 | 0.647 | 0.892
2 | LGRKLYSIATP [ABHD12_Y345_A349T] | 0.616 | 1.11 | 0.621 | 0.698 | 0.773 | 0.612 | 0.576 | 0.672 | 1.3 | 1.29 | 0.635 | 0.413 | 0.471 | 1.18 | 0.698 | 1.07
3 | LGSNTYPFLLT [SAG_Y120] | 0.487 | 0.695 | 0.804 | 0.793 | 1.26 | 1.11 | 0.77 | 0.54 | 0.785 | 0.589 | 1.4 | 0.505 | 0.655 | 1.22 | 0.543 | 0.938
4 | LINPKYSVEEE [PCDH19_Y27_L25P] | 0.786 | 1.92 | 0.548 | 0.977 | 1.8 | 0.753 | 1.06 | 0.55 | 1.65 | 0.836 | 1.36 | 0.797 | 0.986 | 2.28 | 0.608 | 1.39
5 | LKEIHYPPFTD [ALDH3B2_Y362_YF] | 0.505 | 0.922 | 0.644 | 0.413 | 0.819 | 0.474 | 0.425 | 0.437 | 0.659 | 0.329 | 0.555 | 0.437 | 0.541 | 0.9 | 0.401 | 0.559
6 | LKEIRYPPFTD [ALDH3B2_Y362_H361R_YF] | 0.605 | 0.798 | 0.68 | 1.09 | 2.71 | 1.09 | 0.883 | 0.63 | 2.05 | 0.725 | 1.07 | 0.926 | 0.731 | 2.01 | 0.919 | 1.06
7 | LKGQVDILGRE [ASS1_Y359_Y359D] | 0.595 | 1.01 | 0.582 | 0.598 | 0.803 | 0.578 | 0.539 | 0.575 | 1.26 | 0.663 | 0.638 | 0.559 | 0.696 | 1.07 | 0.764 | 0.658
8 | LKMLVYMDMSK [LRRC7_Y234_L235M] | 0.661 | 0.849 | 0.742 | 0.842 | 1.45 | 1.02 | 1.79 | 0.802 | 1.85 | 0.689 | 0.984 | 0.807 | 0.804 | 2.25 | 0.872 | 1.23
9 | LKTNCYNNGKD [DNMT3B_Y404] | 0.429 | 0.764 | 0.694 | 0.68 | 1.12 | 0.685 | 1.09 | 0.879 | 1.24 | 0.601 | 1.12 | 0.649 | 0.818 | 1.21 | 0.572 | 3.04
10 | LLANAYIFDVQ [L1CAM_Y418_V421D_YF] | 0.913 | 1.15 | 0.99 | 0.755 | 1.73 | 0.874 | 0.933 | 0.598 | 1.73 | 0.718 | 1.17 | 1.09 | 0.838 | 1.84 | 1.03 | 0.896
11 | LLKAGYHGVLR [TTPA_Y100] | 1.05 | 1.45 | 1.25 | 0.671 | 0.964 | 0.646 | 0.686 | 0.453 | 0.903 | 0.631 | 0.679 | 0.693 | 0.562 | 1.35 | 0.906 | 0.926
12 | LLREWYVQDPY [SIX3_Y225_L226V] | 1.36 | 1.05 | 0.856 | 0.566 | 1.18 | 0.597 | 0.598 | 0.328 | 0.798 | 0.44 | 0.771 | 0.531 | 0.675 | 1.05 | 0.641 | 0.674
13 | LLVVLNKFRCF [PSEN1_Y154_Y154N_YF] | 1.35 | 1.7 | 1.34 | 0.951 | 1.82 | 1.1 | 0.951 | 0.837 | 1.66 | 0.795 | 1.18 | 1.02 | 1.11 | 1.88 | 1.05 | 2.08
14 | LLVVLYKYRCY [PSEN1_Y154] | 0.777 | 1.17 | 0.87 | 0.699 | 1.11 | 0.686 | 0.318 | 0.708 | 0.974 | 0.746 | 0.615 | 0.532 | 0.642 | 1.79 | 0.609 | 1.57
15 | LNARHYGGLTG [PGAM2_Y92_E89A] | 0.446 | 0.779 | 0.656 | 0.634 | 0.585 | 0.567 | 0.376 | 0.542 | 0.606 | 0.44 | 0.513 | 0.301 | 0.3 | 0.573 | 0.631 | 0.668
16 | LNEWHYGGLTG [PGAM2_Y92_R90W] | 0.682 | 0.723 | 1.29 | 0.636 | 0.74 | 0.58 | 0.444 | 0.738 | 0.84 | 0.365 | 0.891 | 0.662 | 0.452 | 1.12 | 0.52 | 0.626
17 | LNPDGYKKAFE [CPXM2_Y427_E428K_YF] | 0.488 | 0.945 | 0.578 | 0.67 | 1.02 | 0.866 | 0.727 | 0.54 | 1.68 | 0.727 | 0.833 | 0.495 | 0.793 | 2.1 | 0.827 | 1.28
18 | LNPFIYSLRNR [OR1A1_Y288] | 0.486 | 0.873 | 1.55 | 0.6 | 1.46 | 0.891 | 0.437 | 1.28 | 1.43 | 0.493 | 0.579 | 0.657 | 0.618 | 1.55 | 2.23 | 0.974
19 | LQKPMYEVQWK [KIT_Y553] | 0.522 | 0.771 | 0.633 | 0.83 | 1.29 | 0.851 | 2.63 | 0.788 | 1.42 | 1.28 | 1.49 | 0.81 | 0.912 | 1.32 | 0.617 | 1.36
20 | LQPNNCQFCGG [CSF1R_Y969_Y969C] | 0.709 | 0.943 | 0.865 | 0.348 | 0.929 | 0.752 | 0.735 | 0.987 | 1.05 | 0.785 | 1.21 | 0.752 | 0.711 | 0.858 | 0.647 | 1.07
21 | LRRREYQRQDY [PRKRIP1_Y90] | 0.435 | 0.76 | 0.727 | 0.504 | 0.841 | 0.532 | 0.706 | 0.621 | 0.289 | 0.541 | 0.683 | 0.706 | 0.786 | 0.64 | 0.565 | 0.554
22 | LRSRVYEVPVE [SLC26A3_Y756_N753S] | 3.83 | 0.714 | 0.461 | 2.09 | 1.01 | 0.722 | 0.773 | 1.25 | 0.795 | 1.66 | 0.833 | 0.962 | 1.03 | 0.91 | 0.708 | 0.719
23 | LRYDSYSSYCN [SLC20A2_Y433] | 1.24 | 0.65 | 0.449 | 0.577 | 1.32 | 0.619 | 2.74 | 0.949 | 0.865 | 1.38 | 0.849 | 0.837 | 5.07 | 1.12 | 1.27 | 0.824
24 | LRYEVYGGENE [STOX1_Y610] | 1.64 | 0.677 | 0.56 | 0.623 | 1.33 | 0.631 | 0.765 | 0.828 | 1.09 | 0.499 | 0.692 | 0.615 | 0.729 | 1.25 | 0.77 | 0.775
25 | LSGVIYVILRK [PMP22_Y153] | 0.841 | 1.89 | 1.4 | 0.504 | 1.01 | 0.443 | 0.46 | 0.513 | 0.633 | 0.364 | 1.11 | 0.279 | 0.23 | 0.823 | 0.484 | 0.923
26 | LTFDEYRNNSQ [ANXA3_Y216_I219N] | 0.417 | 0.654 | 0.616 | 0.553 | 0.762 | 0.573 | 0.431 | 0.443 | 1.38 | 0.4 | 0.632 | 0.675 | 0.682 | 1.24 | 0.753 | 1.13
27 | LTTEVYFPSIK [C5orf64_Y60_A57T] | 0.564 | 0.911 | 0.885 | 0.482 | 0.946 | 0.775 | 0.436 | 0.541 | 0.703 | 0.562 | 0.661 | 0.77 | 0.628 | 0.895 | 0.563 | 0.766
28 | LVMFIYAISGM [SCN1A_Y1684_F1687S] | 0.569 | 0.792 | 1.4 | 0.813 | 1.2 | 0.48 | 0.931 | 0.727 | 1.17 | 0.725 | 1.01 | 0.442 | 0.927 | 1.99 | 0.85 | 1.17
29 | LVSCTYQLARG [FGFR2_Y608] | 0.515 | 0.894 | 0.7 | 0.605 | 1.23 | 0.452 | 0.536 | 0.483 | 0.983 | 0.443 | 0.698 | 0.579 | 0.62 | 1.08 | 0.783 | 0.91
